Measurements published in patent US20220144895A1, “DE NOVO DESIGN OF TUNABLE PH-DRIVEN CONFORMATIONAL SWITCHES” (University of Washington, priority 2019, published 2022).
Entries after “also recorded” stand apart in the source; their conditions may differ.

Experiments:
[1] = Circular dichroism: GdmCl chemical denaturation and temperature melts; conditions: for folding stability by GdmCl denaturation: CD at 222 nm, PBS pH 7.4 or Na2PO4-Citrate at lower pH
Excerpt: For low-pH experiments involving circular dichroism (CD), small-angle X-ray scattering (SAXS), and size exclusion chromatography (SEC), Na2PO4-Citrate buffer was used to ensure that a single buffer system could be used that was stable over the entire pH range to be tested. Buffers were made using established ratios of stock solutions of 0.2 M Na2PO4 and 0.1 M Citrate; final pH was adjusted using hydrochloric acid (HCl) or sodium hydroxide (NaOH) if needed.
CD wavelength scans (260 to 195 nm) and temperature melts (25 to 95° C.) were measured using a JASCO™ J-1500 or an AVIV™ model 420 CD spectrometer. Temperature melts monitored absorption signal at 222 nm and were carried out at a heating rate of 4° C./min; protein samples were at 0.25 mg/mL in either phosphate buffered saline (PBS) pH 7.4 or Na2PO4-Citrate at indicated pH values (see Buffers systems for varying pH). Guanidinium chloride (GdmCl) titrations were all performed on an AVIV 420 spectrometer with an automated titration apparatus using either PBS pH 7.4 or Na2PO4-Citrate buffers at indicated pH at room temperature, monitoring helical signal at 222 nm, using a protein concentration of 0.025 mg/mL in a 1 cm cuvette with stir bar. Each titration consisted of at least 30 evenly distributed concentration points with one minute mixing time for each step. Titrant solution consisted of the same concentration of protein in the same buffer system plus GdmCl; GdmCl concentration of starting solutions was determined by reactive index.

[2] = Size-exclusion chromatography (SEC); format: physicochemical; conditions: Superdex 75, Na2PO4-Citrate buffer pH 4
Method: Cells were lysed by microfluidization in the presence of 1 mM PMSF. Lysates were clarified by centrifugation at 24,000 ref at 4° C. for at least 30 minutes. Proteins were purified by Immobilized metal affinity chromatography (IMAC): supernatant was applied to Ni-NTA (Qiagen) columns pre-equilibrated in lysis buffer. The column was washed twice with 15 column volumes (CV) of wash buffer (25 mM Tris pH 8.0 at room temperature, 300 mM NaCl, 40 mM Imidazole), followed by 3-5 CV of high-salt wash buffer (25 mM Tris pH 8.0 at room temperature, 1 M NaCl, 40 mM Imidazole) then an additional 15 CV of wash buffer. Protein was eluted with 250 mM Imidazole, and buffer-exchanged into 25 mM Tris pH 8.0 and 150 mM NaCl without imidazole for cleavage of the N-terminal hexahistidine tag by purified hexahistidine-tagged TEV protease (with the exception of design pRO-1, which was cleaved using restriction grade thrombin (EMD Millipore 69671-3) at room temperature for 4 hours or overnight, using a 1:3000 dilution of enzyme into sample solution). A second Ni-NTA step was used to remove hexahistidine tag, uncleaved sample and the hexahistidine-tagged TEV protease, and the cleaved proteins were then […], 150 mM NaCl, and 2% glycerol.

[3] = Fluorescence dequenching liposome leakage (liposome disruption) assay; format: biochemical; conditions: for pH-dependent liposome disruption: SRB leakage
Procedure, shortened: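 Extruded ~120–130 nm liposomes (DOPC or 3:1 DOPC:POPS, ± 25% cholesterol) loaded with 25 mM sulforhodamine B in Tris buffer pH 8.0 were acidified to target pH for 20 min at 24 °C. Leakage was read as SRB dequenching (ex/em 565/586) and normalised to pre-acidification and 1% Triton X-100 signals.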

U2-OS cells = assay: Lysosomal pH with LysoSensor Yellow/Blue DND-160; format: cell-based; conditions: 5 μM protein, 1 hr, LysoSensor yellow/blue ratio
Method: The final concentration of 5 μM+36GFP fusion proteins was incubated with the LAMP1-HaloTag™ expressing U-2 OS cells on a pre-coated coverslip for 1 hr. Cells were fixed with 4% paraformaldehyde for 20 min at room temperature (RT) and quenched/rinsed with PBS supplemented with 30 mM glycine. Then, the coverslips were mounted on FluoroSave™ (Millipore). For pH measurement of the lysosome, LysoSensor™ Yellow/Blue DND-160 was incubated at 1 mg/mL overnight and washed twice prior to imaging (54). The final concentration of 5 μM protein was incubated with the LAMP1-HaloTag expressing U2-OS cells that were loaded with 1 mg/mL LysoSensor™ Yellow/Blue DND-160 for 1 hr. In separate chambers, LysoSensor™ Yellow/Blue DND-160 loaded cells were incubated with bafilomycin A1 (1 μM) and chloroquine (50 μM) for 1 hr as a control. For live cell confocal microscopy, Zeiss 880 was used to collect LysoSensor™ Yellow/Blue signal. LysoSensor™ Yellow/Blue was excited with a 405 nm laser, and its emission was collected into the two regions (Blue=410-499 nm Yellow=500-600 nm) using a Plan-Apochromat 63×/1.4 oil DIC objective. The ratio of the two channels was calculated using the home-built software in Matlab™.

[4] = 2.5 μM protein with respect to monomer

Molecule	effect of EDTA on helical fold or thermostability ([1]; 10 mM EDTA, PBS pH 7.4)	folding stability by GdmCl denaturation [1]	state by SEC at pH 4 [2]	highest pH with liposome disruption [3, 4] [pH]	pH of maximal liposome disruption activity [3, 4] [pH]	pH-dependent liposome disruption [3, 4]	disruption of liposomes with more native-like lipid compositions ([3]; pH 5.0, DOPC, POPS, cholesterol mixtures)	change of lysosomal pH (U2-OS cells)	change of lysosomal pH (U2-OS cells; listed as pRO-256V)
pRO-2: designed pH-responsive homotrimer, SEQ ID NO: 1-2 (protein) chain 1: MGSHHHHHHGSGSENLYFQGSEYEIRKALEELKAATAELKRATASLRAITEELKKNPSEDALVEHNRAIVEHNAIIVEHNRIIAAVLELIVRAIK chain 2: SEYEIRKALEELKAATAELKRATASLRAITEELKKNPSEDALVEHNRAIVEHNAIIVEHNRIIAAVLELIVRAIK	no effect on the helical fold or thermostability	decreased folding stability at low pH; also recorded: strongly pH dependent	soluble aggregate	≤ 6	~5	disrupts liposomes in a pH-dependent manner	caused pH-dependent disruption of liposomes with more native-like lipid compositions		
pRO-2 I56V: pRO-2 mutant, SEQ ID NO: 17-18 (protein) chain 1: MGSHHHHHHGSGSENLYFQGSEYEIRKALEELKAATAELKRATASLRAITEELKKNPSEDALVEHNRAIVEHNAIVVEHNRIIAAVLELIVRAIK chain 2: GSEYEIRKALEELKAATAELKRATASLRAITEELKKNPSEDALVEHNRAIVEHNAIVVEHNRIIAAVLELIVRAIK		decreases stability				increased liposome permeabilization activity; also recorded: increased membrane permeabilization activity		larger changes in lysosomal pH than two drugs; also recorded: increases the lysosomal pH more than the small molecule drugs	raises the lysosomal pH
